Results: patent US20070185028A1, “Compositions and methods for treatment of protein misfolding and protein aggregation diseases” (priority 2004, published 2007)
Entries after “also recorded” stand apart in the source; their conditions may differ.

Assays:
transthyretin (TTR) = biological target: T1, transthyretin (TTR) (Homo sapiens, UniProt P02766); assay: Transthyretin fibrillation ThT assay; type: biochemical; conditions: for effect on TTR fibril formation, overall: five αB crystallin peptides and control
T1 construct: purchased Sigma-Aldrich
Description: The effect of the five αB crystallin peptides ST, DR, HG, LT, and ER on TTR fibrillation was measured using the ThT fluorescence assay (FIG. 26). The formation and inhibition of TTR fibrils was qualitatively verified by fluorescence and bright-field microscopy. The concentration of the peptides was varied relative to TTR to establish a concentration curve. In addition, the effect of a control neuropeptide (AT1) with no TTR fibril inhibition activity was measured and compared to the effect of the αB crystallin peptides on TTR fibril formation. The ThT fluorescence of 16 μM TTR alone incubated at 37° C. for 4 hrs, increased from ˜15,000 to ˜45,000 RFU. Addition of 3.2 μM αB crystallin peptides, ST, DR, LT, and HG decreased the ThT fluorescence of TTR by 15-70%. In contrast, 3.2 μM ER had no effect on TTR fibril formation. Increasing the concentration of the ER peptide to 16 μM decreased the ThT fluorescence of TTR by 60%. The negative control peptide AT1 had no effect on TTR fibrillation even at a concentration as high as 160 μM. All five αB crystallin peptides inhibited TTR fibrillation at sub-stoichometric and stoichometric concentrations (3.2 μM and 16 μM).
The Thioflavin T (ThT) fluorescence of TTR in the presence of varying concentrations of αB crystallin peptides and controls was measured. […] When the concentration of the peptides was increased to 16 μM (1:1::peptide:TTR), the αB crystallin peptides ST, DR, HG, LT and ER decreased the ThT fluorescence by 8-72%. When the concentration of the peptides was increased further to 80 μM ([…]), all of the five αB crystallin peptides ST, DR, HG, LT, and ER decreased the ThT fluorescence by 40-70%. […] The formation and inhibition of TTR fibrils was verified microscopically.
Transthyretin fibrillation ThT assays were performed as described previously. Hurshman et al., Biochemistry 43:7365-81, 2004; O'Nuallain and Wetzel, Proc Natl Acad Sci USA 99:1485-90, 2002. Peptides were dissolved to 2 mM in 0.25% DMSO and diluted accordingly, while TTR was dissolved in 200 mM KCl, 2 mM EDTA, 5 mM PBS, 200 mM sodium acetate, pH 4.4. For the 5::peptide:TTR assay, 10 μL of 160 μM peptide was mixed with 10 μL of 32 μM TTR, and 1 μL of 1 mM ThT. For the 1:1::peptide:TTR assay, 10 μL of 32 μM peptide was mixed with 10 μL of 32 μM TTR and 1 μL of 1 mM ThT. For the 1:5::peptide:TTR assay, 10 μL of 6.4 μM peptide was mixed with 10 μL of 32 μM TTR and 1 μL of 1 mM ThT. ThT fluorescence was measured using a Perkin Elmer Victor^3 V plate reader. Assays were performed in 384-well fluorescence plates in duplicates or triplicates. Samples were incubated at 37° C. ThT fluorescence was measured continuously for 150 minutes. The effect of the peptides and APS was calculated as percentage fibril formation relative to TTR alone (100%) at the end of 150 minutes.

α-synuclein = biological target: T2, α-synuclein (Homo sapiens, UniProt P37840); assay: α-synuclein fibrillation ThT assay; type: biochemical; conditions: for change of ThT fluorescence of α-synuclein: concentration increased to 46 μM
T2 construct: purchased rPeptide
Description: The effect of the five αB crystallin peptides, ST, DR, HG, LT, and ER on as synuclein fibrillation was measured using the ThT fluorescence assay (FIG. 28). The formation and inhibition of α-synuclein fibrils was qualitatively verified by fluorescence and bright-field microscopy. The concentration of the peptides was varied relative to α-synuclein to establish a concentration curve. In addition, the effect of a control neuropeptide (AT1) with no α-synuclein fibril inhibition activity was measured and compared to the effect of the αB crystallin peptides on α-synuclein fibrillation. The ThT fluorescence of 46 μM α-synuclein alone incubated at 37° C. for 96 hrs, increased from ˜9,500 to ˜16,000 RFU. Addition of 9.2 μM αB crystallin peptides ST, DR, HG, LT, and ER decreased the ThT fluorescence of α-synuclein by 32-100%. When the concentration of the αB crystallin peptides was increased to 46 μM, the ThT fluorescence of α-synuclein decreased with the αB crystallin peptides, DR, HG, LT, and ER, while the ThT fluorescence increased with the ST peptide. […] The negative control peptide AT1 had no effect on α-synuclein fibrillation even at a concentration as high as 460 μM. All five αB crystallin peptides inhibited α-synuclein fibrillation at sub-stoichometric and stoichometric concentrations (9.2 μM and 46 μM).
The Thioflavin T (ThT) fluorescence of 46 μM α-synuclein in the presence of varying concentrations of αB crystallin peptides and controls was measured. […] When the concentration of the peptides was increased to […] (1:1::peptide:α-synuclein), the αB crystallin peptides DR, HG, LT and ER decreased the ThT fluorescence by 51-100%, while the ST peptide had no effect on ThT fluorescence. When the concentration of the peptides was increased further to […] (10:1::peptide:α-synuclein), the five αB crystallin peptides decreased the ThT fluorescence by 40-100%. […] The formation and inhibition of β2-microglobulin fibrils was verified microscopically.
α-synuclein fibrillation ThT assays were performed as described previously. Zhu et al., J Biol Chem 279:26846-57, 2004; Dedmon et al., J Biol Chem 280:14733-40, 2005. Peptides were dissolved to 2 mM in 0.25% DMSO and diluted accordingly, while α-synuclein was dissolved in 20 mM Tris-Cl, 100 mM NaCl, pH 7.4. For the 5:1::peptide: α-synuclein assay, 5 μL of 700 μM peptide or APS was mixed with 5 μL of 140 μM α-synuclein, 17 μt of 20 mM Tris-Cl, 100 mM NaCl, pH 7.4 and 3 μL of 1 mM ThT. For the 1:1::peptide:α-synuclein assay, 5 μL of 140 μM peptide was mixed with 5 μL of 140 μM α-synuclein, 17 μl of 20 mM Tris-Cl, 100 mM NaCl, pH 7.4 and 3 μL of 1 mM ThT. For the 1:5::peptide:α-synuclein assay, 5 μL of 28 μM peptide was mixed with 5 μL of 140 μM α-synuclein, and […] of 20 mM Tris-Cl, 100 mM NaCl, pH 7.4 and 3/L of 1 mM ThT. ThT fluorescence was measured using a Perkin Elmer Victor^3 V plate reader. Assays were performed in 384-well fluorescence plates in duplicates or triplicates. Samples were incubated at 37° C. for a total of 96 hours. ThT fluorescence was measured at 0, 24, 48, and 96 hours. The effect of the peptides and APS was calculated as percentage fibril formation relative to α-synuclein alone (100%) at the end of 96 hours.

Row | Sequence | effect on TTR fibril formation, overall (transthyretin (TTR)) | change of ThT fluorescence of α-synuclein (α-synuclein) | decrease in ThT fluorescence of TTR (transthyretin (TTR); 3.2 μM, 16 μM TTR, 37° C.) | decrease in ThT fluorescence of α-synuclein (α-synuclein; 16 μM (1:1::peptide:α-synuclein) as printed) | effect on α-synuclein fibril formation, overall (α-synuclein) | effect on TTR fibril formation, overall (transthyretin (TTR); listed as HG)
1 | HGKHEERQDE | – | decreased | – | – | most effective inhibitor | most effective inhibitor; also recorded: strong inhibition
2 | LTITSSLSSDGV | partially inhibited | decreased | – | – | – | –

Second part, led by results:

Row | effect on TTR fibril formation, overall (transthyretin (TTR)) | change of ThT fluorescence of α-synuclein (α-synuclein) | decrease in ThT fluorescence of TTR (transthyretin (TTR); 3.2 μM, 16 μM TTR, 37° C.) | decrease in ThT fluorescence of α-synuclein (α-synuclein; 16 μM (1:1::peptide:α-synuclein) as printed) | Sequence | effect on α-synuclein fibril formation, overall (α-synuclein) | effect on TTR fibril formation, overall (transthyretin (TTR); listed as HG)
3 | strong inhibition | decreased | – | – | DRFSVNLDVKHFS | most effective inhibitor | –
4 | modestly inhibited | decreased | no effect | – | ERTIPITRE | – | –
5 | partially inhibited | increased | – | no effect | STSLSPFYLRPPSFLRAP | – | –
